Assay results taken from patent publication US20230265151A1, “GIP/GLP1 CO-AGONIST COMPOUNDS” (priority 2020, published 2023).
*1 amine or outer side, *2 acyl side, *3 side chain or, on linkers, in order; H or OH if unused. Where no end group is shown, it is not given here. Side-chain parts run from the residue outwards. [ ]: non-standard residue; d: D form. The star is where a group is joined. αMePhe(2-F) = C[C@](N)(Cc1ccccc1F)C(=O)O; γGlu = O=C(O)[C@H](CCC(=O)[*:2])N[*:1]; C14 diacid = O=C(O)CCCCCCCCCCCCC(=O)*; εLys = N[C@@H](CCCCN[*:1])C(=O)[*:2]; αMeY = C[C@](N)(Cc1ccc(O)cc1)C(=O)O; αMeL = CC(C)C[C@](C)(N)C(=O)O; Orn = NCCC[C@H](N)C(=O)O; AEEA = NCCOCCOCC(=O)O; Aib = CC(C)(N)C(=O)O

T1: human glucose-dependent insulinotropic polypeptide (GIP) receptor (human, UniProt P48546 22-466)
T1 sequence (looked up): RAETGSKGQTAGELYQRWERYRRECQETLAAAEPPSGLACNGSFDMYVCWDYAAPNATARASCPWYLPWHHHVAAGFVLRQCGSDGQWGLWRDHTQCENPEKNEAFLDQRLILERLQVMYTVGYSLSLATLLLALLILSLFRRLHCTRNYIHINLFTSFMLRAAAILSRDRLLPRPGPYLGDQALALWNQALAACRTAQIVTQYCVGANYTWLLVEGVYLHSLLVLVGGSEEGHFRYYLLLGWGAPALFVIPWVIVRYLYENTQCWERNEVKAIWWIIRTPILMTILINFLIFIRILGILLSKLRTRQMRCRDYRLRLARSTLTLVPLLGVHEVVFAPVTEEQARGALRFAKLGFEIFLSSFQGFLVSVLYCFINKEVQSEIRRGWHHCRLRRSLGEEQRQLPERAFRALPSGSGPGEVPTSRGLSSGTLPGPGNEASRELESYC


Tests used:
Experiment in all cases: cell-based or functional assay
[1] = molecular target: T1, human glucose-dependent insulinotropic …
[2] = molecular target: human glucagon-like peptide-1 (GLP-1) receptor (human, UniProt P43220 24-463)
human glucagon receptor = human glucagon receptor (human, UniProt P47871 26-477)

| Binder | cAMP EC50 [1] | cAMP Emax [1] | cAMP EC50 [2] | cAMP Emax [2] | cAMP EC50 (human glucagon receptor) |
| --- | --- | --- | --- | --- | --- |
| Y[Aib]EGT[αMePhe(2-F)]TSDV[Aib]I[αMeL]LD[Orn]K([εLys-γGlu-C14 diacid])AQ[Aib]EFIK([εLys-γGlu-C14 diacid])[αMeY]LIEGGPSSGAPPPS-NH2 [Example 167] | 0.0534 nM | 99.5% | 0.217 nM | 91.4% | > 9950 nM |
| YXEGTXTSDXSIXLDXKAQXEFIXXLIEGGPSSGAPPPSK (Aib2, αMeF(2F)6, 4Pal10, αMeL13, Orn16, K17(Z), Aib20, D-Glu24, αMeY25, K40(Z), C-terminal NH2; Z = AEEA2-(γ-Glu)-(10-(4-carboxyphenoxy)decanoyl)) [Example 273] | 0.0166 nM | – | 2.08 nM | – | > 9950 nM |
| YXEGTXTSDXSIXLDXIAQXKFIXXLIEGGPSSGAPPPSK (Aib2, αMeF(2F)6, 4Pal10, αMeL13, Orn16, Aib20, K21(Z), D-Glu24, αMeY25, K40(Z), C-terminal NH2; Z = AEEA2-(γ-Glu)-(11-(4-carboxyphenoxy)undecanoyl)) [Example 288] | 0.0219 nM | – | 0.354 nM | – | > 9950 nM |
| YXEGTXTSDXSIXLDXKAQXEFIXXLIEGGPSSGAPPPSK (Aib2, αMeF(2F)6, 4Pal10, αMeL13, Orn16, K17(Z), Aib20, D-Glu24, αMeY25, K40(Z), C-terminal NH2; Z = AEEA2-(γ-Glu)-(11-(4-carboxyphenoxy)undecanoyl)) [Example 285] | 0.0115 nM | – | 1.21 nM | – | > 9950 nM |
| YXEGTXTSDXSIXLDXIAQXKFIXXLIEGGPSSGAPPPSK (Aib2, αMeF(2F)6, 4Pal10, αMeL13, Orn16, Aib20, K21(Z), D-Glu24, αMeY25, K40(Z), C-terminal NH2; Z = AEEA2-(γ-Glu)-(10-(4-carboxyphenoxy)decanoyl)) [Example 276] | 0.0134 nM | – | 0.49 nM | – | > 9950 nM |
| Y[Aib]EGT[αMePhe(2-F)]TSDV[Aib]I[αMeL]LD[Orn]K([εLys-εLys-γGlu-C14 diacid])AQ[Aib]EFIK([εLys-εLys-γGlu-C14 diacid])[αMeY]LIEGGPSSGAPPPS-NH2 [Example 168] | 0.0482 nM | 93% | 0.312 nM | 93.3% | > 9950 nM |
| Y[Aib]EGT[αMePhe(2-F)]TSDV[Aib]I[αMeL]LD[Orn]K([AEEA-AEEA-εLys-C14 diacid])AQ[Aib]EFIK([AEEA-AEEA-εLys-C14 diacid])[αMeY]LIEGGPSSGAPPPS-NH2 [Example 166] | 0.0774 nM | 97% | 0.192 nM | 90.3% | > 9950 nM |
| YXEGTXTSDXSIXLDXKAQXKFIXXLIEGGPSSGAPPPS (Aib2, αMeF(2F)6, hTyr10, αMeL13, Orn16, K17(Z), Aib20, K21(Z), D-Glu24, αMeY25, C-terminal NH2; Z = AEEA2-CO-(CH2)12-CO2H) [Example 272] | 0.0264 nM | – | 0.388 nM | – | > 9950 nM |
| YXEGTXTSDXSIXLDXKAQXEFIXXLIKGGPSSGAPPPS (Aib2, αMeF(2F)6, OMeY10, αMeL13, Orn16, K17(Z), Aib20, D-Glu24, αMeY25, K28(Z), C-terminal NH2; Z = AEEA2-(γ-Glu)-CO-(CH2)10-CH3) [Example 290] | 0.0188 nM | – | 0.324 nM | – | > 9950 nM |
| YXEGTXTSDXSIXLDXIAQXEFIKXLIKGGPSSGAPPPS (Aib2, αMeF(2F)6, OMeY10, αMeL13, Orn16, Aib20, K24(Z), αMeY25, K28(Z), C-terminal NH2; Z = AEEA2-(γ-Glu)-(10-(4-carboxyphenoxy)decanoyl)) [Example 279] | 0.0305 nM | – | 0.406 nM | – | > 9950 nM |
| YXEGTXTSDXSIXLDXKAQXEFIEXLIEGGKSSGAPPPS (Aib2, αMeF(2F)6, 4Pal10, αMeL13, Orn16, K17(Z), Aib20, αMeY25, K31(Z), C-terminal NH2; Z = AEEA2-(γ-Glu)-CO-(CH2)12-CO2H) [Example 158] | 0.0204 nM | 93.4% | 0.448 nM | 87.2% | > 9950 nM |
| YXEGTXTSDXSIXLDXKAQXKFIXXLIEGGPSSGAPPPS (Aib2, αMeF(2F)6, OMeY10, αMeL13, Orn16, K17(Z), Aib20, K21(Z), D-Glu24, αMeY25, C-terminal NH2; Z = AEEA2-(γ-Glu)-CO-(CH2)10-CH3) [Example 289] | 0.017 nM | – | 0.731 nM | – | > 9950 nM |
| YXEGTXTSDXSIXLDXKAQXKFIXXLIEGGPSSGAPPPS (Aib2, αMeF(2F)6, 2Nal10, αMeL13, Orn16, K17(Z), Aib20, K21(Z), D-Glu24, αMeY25, C-terminal NH2; Z = AEEA2-(γ-Glu)-(10-(4-carboxyphenoxy)decanoyl)) [Example 281] | 0.0187 nM | – | 0.252 nM | – | > 9950 nM |
| YXEGTXTSDXSIXLDXKAQXEFIXXLIEGGKSSGAPPPS (Aib2, αMeF(2F)6, 4Pal10, αMeL13, Orn16, K17(Z), Ac5c20, D-Glu24, αMeY25, K31(Z), C-terminal NH2; Z = AEEA2-(γ-Glu)-CO-(CH2)12-CO2H) [Example 170] | 0.0244 nM | – | 1.03 nM | – | > 9950 nM |
| YXEGTXTSDXSIXLDXIAQXKFIXXLIKGGPSSGAPPPS (Aib2, αMeF(2F)6, 2Nal10, αMeL13, Orn16, Aib20, K21(Z), D-Glu24, αMeY25, K28(Z), C-terminal NH2; Z = AEEA2-(γ-Glu)-(10-(4-carboxyphenoxy)decanoyl)) [Example 284] | 0.0389 nM | – | 0.505 nM | – | > 9950 nM |
| YXEGTXTSDXSIXLDXKAQXEFIXXLIEGGKSSGAPPPS (Aib2, αMeF(2F)6, 4Pal10, αMeL13, Orn16, K17(Z), 4Pal20, D-Glu24, αMeY25, K31(Z), C-terminal NH2; Z = AEEA2-(γ-Glu)-CO-(CH2)12-CO2H) [Example 156] | 0.0422 nM | – | 4.6 nM | – | > 9950 nM |
| YXEGTXTSDXSIXLDXKAQXEXIXXLIEGGKSSGAPPPS (Aib2, αMeF6, 4Pal10, αMeL13, Orn16, K17(Z), Aib20, αMeF22, D-Glu24, αMeF25, K31(Z), C-terminal NH2; Z = AEEA2-(γ-Glu)-CO-(CH2)10-CH3) [Example 174] | 0.0284 nM | 92.2% | 0.33 nM | 98.2% | > 9950 nM |
| YXEGTXTSDXSIXLDXKAQXEFIKXLIEGGPSSGAPPPS (Aib2, αMeF(2F)6, 4Pal10, αMeL13, Orn16, K17(Z), Aib20, K24(Z), αMeY25, C-terminal NH2; Z = (εK)-(εK)-(γ-Glu)-CO-(CH2)12-CO2H) [Example 162] | 0.022 nM | 89.7% | 0.327 nM | – | > 9950 nM |
